These results are taken from publication PMC2191257.

This data set has as its target t-Elf-1 (truncated Elf-1) (UniProt P32519 108-304). The experiment in a line: EMSA.

t-Elf-1 (truncated Elf-1), sequence (P32519 108-304): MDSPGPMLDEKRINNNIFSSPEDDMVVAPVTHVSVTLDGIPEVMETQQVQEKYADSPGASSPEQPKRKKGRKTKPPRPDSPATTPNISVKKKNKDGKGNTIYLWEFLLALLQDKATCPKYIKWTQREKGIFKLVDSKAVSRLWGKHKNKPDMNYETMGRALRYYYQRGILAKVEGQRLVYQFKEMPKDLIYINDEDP

B1: MSV LTR (dsDNA)
DNA 1: TCGGAGACGGAAGCGCGC
DNA 2: GCGCGCTTCCGTCTCCGA
As for B1, the binding result is given as “binds”.
